The results in this text go back to patent publication US20200140562A1 (Innovent, published 2020).

Experiment [1] has as its target T1, human OX40 on cells (CHO-hOX40, 293HEK-hOX40, Jurkat-hOX40, activated primary CD4+ T cells) (human, UniProt P43489 29-277).
T1 construct: whole, on cells; The cell type is told in each assay; also called CHO-OX40
T1 sequence (looked up): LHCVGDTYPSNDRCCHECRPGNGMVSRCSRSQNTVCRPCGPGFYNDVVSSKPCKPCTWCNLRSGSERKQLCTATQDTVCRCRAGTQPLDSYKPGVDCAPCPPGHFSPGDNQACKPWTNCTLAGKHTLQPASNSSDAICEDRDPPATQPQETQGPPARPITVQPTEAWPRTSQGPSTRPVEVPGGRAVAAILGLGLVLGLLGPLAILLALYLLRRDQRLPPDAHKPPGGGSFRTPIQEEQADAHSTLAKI
As to the kind of experiment: flow cytometry, MFI on CHO-hOX40 over wild-type CHO.

The target of experiment [2] is T2, human OX40_Fc (R&D Systems) (human, UniProt P43489 29-216).
T2 construct: Bought
Briefly: BLI, IgG1 on tip, hOX40-Fc 50 nM, avid. For orientation: Biolayer interferometry detects binding as a change in optical thickness at a sensor tip.

Experiment [3] concerns the target T3, cyno OX40_Fc (Acro Biosystems) (cyno).
T3 construct: Bought
As to the kind of experiment: BLI, IgG1 on tip, cyno OX40-Fc 100 nM, avid.

Experiment [4] concerns the target T1, human OX40 on cells (CHO-hOX40, …). Briefly: flow cytometry, CHO-hOX40, 100 nM. (A flow cytometer gives signals particle by particle.)
Experiment [5] addresses T2, human OX40_Fc (R&D Systems). As to the kind of experiment: BLI, hOX40-Fc on tip, Fab 200 nM, monovalent.
Experiment [6] has as its target T4, Human biotinylated OX40-His monomer (human, UniProt P43489 29-216, limits assumed, biotinylated).
T4 construct: Bought from Acro Biosystems; also called biotin-OX-40 monomer; not shown: His tag
T4 sequence (looked up): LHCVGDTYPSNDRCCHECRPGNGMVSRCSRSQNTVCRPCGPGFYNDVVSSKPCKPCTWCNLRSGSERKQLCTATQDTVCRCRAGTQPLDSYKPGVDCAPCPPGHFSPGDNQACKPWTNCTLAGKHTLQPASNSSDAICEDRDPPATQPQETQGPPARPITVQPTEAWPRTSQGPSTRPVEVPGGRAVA
As to the kind of experiment: MSD-SET, biotinylated OX40-His monomer with Fab.

B1: ADI-23518, IgG1 format (antibody, V domains shown)
VH: QVQLQESGPGLVKPSQTLSLTCTVSGGSISSGASYWSWIRQHPGKGLEWIGYIYYSGETYYNPSLKSRVTISVDTSKNQFSLKLSSVTAADTAVYYCARDVGYPHYYGMDVWGQGTTVTVSS
VL: EIVLTQSPGTLSLSPGERATLSCRASQSVSSSYLAWYQQKPGQAPRLLIYGASSRATGIPDRFSGSGSGTDFTLTISRLEPEDFAVYYCQQSERSPFTFGGGTKVEIKR
notes: Made in yeast
The molecule B1 returned a Fold difference in experiment [1] of 1480 fold. Besides, the Kd in experiment [2] is 0.297 nM; in experiment [3], 1.08 nM. Moreover, in experiment [4], the “CHO-OX40 binding intensity (MFI)” value is 173000 MFI.

B2: ADI-23515, Fab (Fab, V domains shown)
VH: QVQLQESGPGLVKPSQTLSLTCTVSGGSIRSGAYYWSWIRQHPGKGLEWIGYIYYDGQTYYNPSLKSRVTISVDTSKNQFSLKLSSVTAADTAVYYCARDVGYPHYYGMDVWGQGTTVTVSS
VL: EIVLTQSPGTLSLSPGERATLSCRASQSVSSSYLAWYQQKPGQAPRLLIYGASSRATGIPDRFSGSGSGTDFTLTISRLEPEDFAVYYCQQSERSPFTFGGGTKVEIKR
Turning to B2, the Kd is 3.79 nM in experiment [5] and 0.16 nM in experiment [6].

B3: ADI-23519, Fab (Fab, V domains shown)
VH: QVQLQESGPGLVKPSQTLSLTCTVSGGSISSGSSYWSWIRQHPGKGLEWIGYIYMSGETYYNPSLKSRVTISVDTSKNQFSLKLSSVTAADTAVYYCARDVGYPHYYGMDVWGQGTTVTVSS
VL: EIVLTQSPGTLSLSPGERATLSCRASQSVSSSYLAWYQQKPGQAPRLLIYGASSRATGIPDRFSGSGSGTDFTLTISRLEPEDFAVYYCQQSERSPFTFGGGTKVEIKR
Molecule B3 came in with a Kd in experiment [5] of 5.36 nM.

B4: ADI-23518, Fab (Fab, V domains shown)
VH: QVQLQESGPGLVKPSQTLSLTCTVSGGSISSGASYWSWIRQHPGKGLEWIGYIYYSGETYYNPSLKSRVTISVDTSKNQFSLKLSSVTAADTAVYYCARDVGYPHYYGMDVWGQGTTVTVSS
VL: EIVLTQSPGTLSLSPGERATLSCRASQSVSSSYLAWYQQKPGQAPRLLIYGASSRATGIPDRFSGSGSGTDFTLTISRLEPEDFAVYYCQQSERSPFTFGGGTKVEIKR
For the molecule B4, the Kd in experiment [5] is 7.16 nM.

B5: ADI-23519, IgG1 format (antibody, V domains shown)
VH: QVQLQESGPGLVKPSQTLSLTCTVSGGSISSGSSYWSWIRQHPGKGLEWIGYIYMSGETYYNPSLKSRVTISVDTSKNQFSLKLSSVTAADTAVYYCARDVGYPHYYGMDVWGQGTTVTVSS
VL: EIVLTQSPGTLSLSPGERATLSCRASQSVSSSYLAWYQQKPGQAPRLLIYGASSRATGIPDRFSGSGSGTDFTLTISRLEPEDFAVYYCQQSERSPFTFGGGTKVEIKR
notes: Made in yeast
B5: the results for the Kd in experiment [2] and in experiment [3] were 0.255 nM and 1.1 nM, respectively.

B6: ADI-25653, Fab (Fab, V domains shown)
VH: QVQLVESGGGVVQPGRSLRLSCAASGFTFVSYNMHWVRQAPGKGLEWVAVIMYDGSAKYYADSVKGRFTISRDNSKNTLYLQMNSLRAEDTAVYYCARGRPWYSETGTSAFDIWGQGTMVTVSS
VL: DIQMTQSPSSLSASVGDRVTITCQASQDISNYLNWYQQKPGKAPKLLIYDASNLETGVPSRFSGSGSGTDFTFTISSLQPEDIATYYCQQSDHYPTFGGGTKVEIKR
As for B6, the dissociation constant Kd in experiment [5] was 1.63 nM; in experiment [6] it was 0.086 nM.

B7: ADI-25650, Fab (Fab, V domains shown)
VH: QVQLVESGGGVVQPGRSLRLSCAASGFTFSVYNMHWVRQAPGKGLEWVAVIAYDGSAKYYADSVKGRFTISRDNSKNTLYLQMNSLRAEDTAVYYCARGRPWYSETGTSAFDIWGQGTMVTVSS
VL: DIQMTQSPSSLSASVGDRVTITCQASQDISNYLNWYQQKPGKAPKLLIYDASNLETGVPSRFSGSGSGTDFTFTISSLQPEDIATYYCQQSDHYPTFGGGTKVEIKR
With B7, the Kd in experiment [5] was 1.04 nM; in experiment [6], 0.14 nM.

B8: ADI-25654, Fab (Fab, V domains shown)
VH: QVQLVESGGGVVQPGRSLRLSCAASGFTFRSYDMHWVRQAPGKGLEWVAYIAYDGSNKYYADSVKGRFTISRDNSKNTLYLQMNSLRAEDTAVYYCARGRPWYSETGTSAFDIWGQGTMVTVSS
VL: DIQMTQSPSSLSASVGDRVTITCQASQDISNYLNWYQQKPGKAPKLLIYDASNLETGVPSRFSGSGSGTDFTFTISSLQPEDIATYYCQQSDHYPTFGGGTKVEIKR
For the molecule B8, the Kd amounted to 1.8 nM in experiment [5] and 0.18 nM in experiment [6].

As usually defined, the Kd is the free concentration of one partner at which half of the binding sites on the other are occupied at equilibrium, for simple one-to-one binding.
